Three molecules from patent US20230406921A1 (MABWELL SHANGHAI BIOSCIENCE, published 2023) can be followed below.

For assay [1], the target named is T1, recombinant antigen of the extracellular region of CD47 (Sino Biological, Cat: 12283-H08H) (human, UniProt Q08722 19-139).
T1 construct: extracellular domain; also called recombinant CD47 extracellular region; CD47 recombinant protein
Nature of the assay: Fortebio BLI. On the technique in general: Biolayer interferometry detects binding as a change in optical thickness at a sensor tip.

Assay [2] has as its target PD-L1 (human, UniProt Q9NZQ7 19-239, limits assumed). In words: Fortebio BLI.
Assay [3] has as its target T2, CD47 on the surface of tumor cells (human, UniProt Q08722 19-323).
T2 construct: whole, on cells; Same protein as m4; also called CD47 antigen on the surface of U937 and CCRF cells; SKOV-3
In words: FACS, SKOV-3 tumor cells (no PD-L1), antibody 100 nM. A general note: A flow cytometer gives signals particle by particle.
Method: (§1) In the experiment of analyzing the binding to human red blood cells, the antibody was used at a concentration of 1000 nM; and in the experiment of analyzing the binding to tumor cells, the antibody was used at a concentration of 100 nM.

Assay [4] concerns the target T3, CD47 on the surface of human red blood cells (human, UniProt Q08722 19-323).
T3 construct: whole, on cells; Same protein as m3, on red blood cells; also called hRBC; RBC
Nature of the assay: FACS, human red blood cells, antibody 1000 nM.
Method: as §1

Chain of PD-L1 (Q9NZQ7 19-239 limits assumed): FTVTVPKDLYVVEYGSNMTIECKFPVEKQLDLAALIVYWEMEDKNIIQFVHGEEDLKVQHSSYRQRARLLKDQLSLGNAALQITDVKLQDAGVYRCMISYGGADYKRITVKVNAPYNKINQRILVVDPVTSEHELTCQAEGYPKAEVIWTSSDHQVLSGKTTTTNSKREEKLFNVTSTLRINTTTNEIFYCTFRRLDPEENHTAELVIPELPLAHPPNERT

B1: anti-human CD47/PD-L1 bispecific antibody 2MW1531-m5 (bispecific antibody)
heavy 1: EVQLVQSGAEVKKPGASVKVSCKASGYKFTNYVMSWVRQAPGQRLEWMGYINPYNDAIKYNEKFTGRVTITRDTSASTAYMELSSLRSEDTAVYYCAREGDFYANYGRLGFAYWGQGTLVTVSSASTKGPSVFPLAPCSRSTSESTAALGCLVKDYFPEPVTVSWNSGALTSGVHTFPAVLQSSGLYSLSSVVTVPSSSLGTQTYTCNVDHKPSNTKVDKRVESKYGPPCPPCPAPEFLGGPSVFLFPPKPKDTLMISRTPEVTCVVVDVSQEDPEVQFNWYVDGVEVHNAKTKPREEQYNSTYRVVSVLTVLHQDWLNGKEYKCKVSNKGLPSSIEKTISKAKGQPREPQVYTLPPSQKEMTKNQVSLTCLVKGFYPSDIAVEWESNGQPENNYKTTPPVLDSDGSFFLYSKLTVDKSRWQEGNVFSCSVMHEALHNRYTQKSLSLSLGK
heavy 2: EVQLVQSGAEVKKPGATVKISCKVSGFNIKDIYMHWVQQAPGKGLEWMGRIDPANANTKYDPKFQDRVTITADTSTNTAYMELSSLRSEDTAVYYCASGQLGPLGFDYWGQGTTVTVSSASTKGPSVFPLAPCSRSTSESTAALGCLVKDYFPEPVTVSWNSGALTSGVHTFPAVLQSSGLYSLSSVVTVPSSSLGTQTYTCNVDHKPSNTKVDKRVESKYGPPCPPCPAPEFLGGPSVFLFPPKPKDTLMISRTPEVTCVVVDVSQEDPEVQFNWYVDGVEVHNAKTKPREEQYNSTYRVVSVLTVLHQDWLNGKEYKCKVSNKGLPSSIEKTISKAKGQPREPQVYTLPPSQEEMTKNQVSLTCLVKGFYPSDIAVEWESNGQPENNYKTTPPVLDSDGSFFLYSKLTVDKSRWQEGNVFSCSVMHEALHNHYTQESLSLSLGK
VL: DIQMTQSPSSLSASVGDRVTITCRASQDISNYLNWYQQKPGKAPKLLLYYTSRLHSGVPSRFSGSGSGTDYTLTISSLQPEDFATYFCQQGDGRPYTFGGGTKVEIKRTVAAPSVFIFPPSDEQLKSGTASVVCLLNNFYPREAKVQWKVDNALQSGNSQESVTEQDSKDSTYSLSSTLTLSKADYEKHKVYACEVTHQGLSSPVTKSFNRGEC
notes: Knobs-into-holes with a common light chain
What is called Kd is the equilibrium constant for the complex coming apart. A word on the koff: it is the first-order rate constant of dissociation. A word on the kon: it is a measure of how fast the partners come together. For B1, in assay [1], the dissociation constant (Kd) was 10.8 nM, the koff was determined as 0.00101 s⁻¹ and the kon came to 93600 M⁻¹ s⁻¹. Moreover, in assay [2], the Kd came out at 1.02 nM, the koff stood at 0.000357 s⁻¹ and the kon turned out to be 347000 M⁻¹ s⁻¹. The “Binding to tumor cells (MFI)” value in assay [3] stood at 30900 MFI. For the same molecule, in assay [4], the “Binding to human red blood cells (MFI)” value came to 807 MFI.

B2: anti-human CD47/PD-L1 bispecific antibody 2MW1531-m6 (bispecific antibody)
heavy 1: EVQLVQSGAEVKKPGASVKVSCKASGYKFTNYVMSWVRQAPGQRLEWMGYINPYNDAIKYNEKFTGRVTITRDTSASTAYMELSSLRSEDTAVYYCAREGDFYANYGRLGFAYWGQGTLVTVSSASTKGPSVFPLAPCSRSTSESTAALGCLVKDYFPEPVTVSWNSGALTSGVHTFPAVLQSSGLYSLSSVVTVPSSSLGTQTYTCNVDHKPSNTKVDKRVESKYGPPCPPCPAPEFLGGPSVFLFPPKPKDTLMISRTPEVTCVVVDVSQEDPEVQFNWYVDGVEVHNAKTKPREEQYNSTYRVVSVLTVLHQDWLNGKEYKCKVSNKGLPSSIEKTISKAKGQPREPQVYTLPPSQKEMTKNQVSLTCLVKGFYPSDIAVEWESNGQPENNYKTTPPVLDSDGSFFLYSKLTVDKSRWQEGNVFSCSVMHEALHNRYTQKSLSLSLGK
heavy 2: EVQLVQSGAEVKKPGATVKISCKVSGFNIKDIYMHWVQQAPGKGLEWMGRIDPANANTKYDPKFQDRVTITADTSTNTAYMELSSLRSEDTAVYYCASGQLGPLGFDYWGQGTTVTVSSASTKGPSVFPLAPCSRSTSESTAALGCLVKDYFPEPVTVSWNSGALTSGVHTFPAVLQSSGLYSLSSVVTVPSSSLGTQTYTCNVDHKPSNTKVDKRVESKYGPPCPPCPAPEFLGGPSVFLFPPKPKDTLMISRTPEVTCVVVDVSQEDPEVQFNWYVDGVEVHNAKTKPREEQYNSTYRVVSVLTVLHQDWLNGKEYKCKVSNKGLPSSIEKTISKAKGQPREPQVYTLPPSQEEMTKNQVSLTCLVKGFYPSDIAVEWESNGQPENNYKTTPPVLDSDGSFFLYSKLTVDKSRWQEGNVFSCSVMHEALHNHYTQESLSLSLGK
VL: DIQMTQSPSSLSASVGDRVTITCRASQDISNYLNWYQQKPGKAPKLLLYYTSRLHSGVPSRFSGSGSGTDYTLTISSLQPEDFATYFCQQGATRPYTFGGGTKVEIKRTVAAPSVFIFPPSDEQLKSGTASVVCLLNNFYPREAKVQWKVDNALQSGNSQESVTEQDSKDSTYSLSSTLTLSKADYEKHKVYACEVTHQGLSSPVTKSFNRGEC
notes: as for B1
On to B2, for which, in assay [1], the Kd worked out at 84.5 nM, the koff is 0.00879 s⁻¹ and the kon turned out to be 104000 M⁻¹ s⁻¹. In assay [2], this molecule came in with a dissociation constant Kd of 1.73 nM, a koff of 0.000496 s⁻¹ and a kon of 287000 M⁻¹ s⁻¹. Besides, the “Binding to tumor cells (MFI)” value in assay [3] was 24700 MFI. The “Binding to human red blood cells (MFI)” value in assay [4] worked out at 912 MFI.

B3: anti-human CD47/PD-L1 bispecific antibody 2MW1531-m8 (bispecific antibody)
heavy 1: EVQLVQSGAEVKKPGASVKVSCKASGYKFTNYVMSWVRQAPGQRLEWMGYINPYNDAIKYNEKFTGRVTITRDTSASTAYMELSSLRSEDTAVYYCAREGDFYANYGRLGFAYWGQGTLVTVSSASTKGPSVFPLAPCSRSTSESTAALGCLVKDYFPEPVTVSWNSGALTSGVHTFPAVLQSSGLYSLSSVVTVPSSSLGTQTYTCNVDHKPSNTKVDKRVESKYGPPCPPCPAPEFLGGPSVFLFPPKPKDTLMISRTPEVTCVVVDVSQEDPEVQFNWYVDGVEVHNAKTKPREEQYNSTYRVVSVLTVLHQDWLNGKEYKCKVSNKGLPSSIEKTISKAKGQPREPQVYTLPPSQKEMTKNQVSLTCLVKGFYPSDIAVEWESNGQPENNYKTTPPVLDSDGSFFLYSKLTVDKSRWQEGNVFSCSVMHEALHNRYTQKSLSLSLGK
heavy 2: EVQLVQSGAEVKKPGATVKISCKVSGFNIKDIYMHWVQQAPGKGLEWMGRIDPANANTKYDPKFQDRVTITADTSTNTAYMELSSLRSEDTAVYYCASGQLGPLGFDYWGQGTTVTVSSASTKGPSVFPLAPCSRSTSESTAALGCLVKDYFPEPVTVSWNSGALTSGVHTFPAVLQSSGLYSLSSVVTVPSSSLGTQTYTCNVDHKPSNTKVDKRVESKYGPPCPPCPAPEFLGGPSVFLFPPKPKDTLMISRTPEVTCVVVDVSQEDPEVQFNWYVDGVEVHNAKTKPREEQYNSTYRVVSVLTVLHQDWLNGKEYKCKVSNKGLPSSIEKTISKAKGQPREPQVYTLPPSQEEMTKNQVSLTCLVKGFYPSDIAVEWESNGQPENNYKTTPPVLDSDGSFFLYSKLTVDKSRWQEGNVFSCSVMHEALHNHYTQESLSLSLGK
VL: DIQMTQSPSSLSASVGDRVTITCRASQDISNYLNWYQQKPGKAPKLLLYYTSRLHSGVPSRFSGSGSGTDYTLTISSLQPEDFATYFCQQGAGRPRTFGGGTKVEIKRTVAAPSVFIFPPSDEQLKSGTASVVCLLNNFYPREAKVQWKVDNALQSGNSQESVTEQDSKDSTYSLSSTLTLSKADYEKHKVYACEVTHQGLSSPVTKSFNRGEC
notes: as for B1
Regarding B3, in assay [1], the Kd is 107 nM, the koff turned out to be 0.00937 s⁻¹ and the kon is 87900 M⁻¹ s⁻¹. In assay [2], this molecule showed a Kd of 0.546 nM, a koff of 0.000134 s⁻¹ and a kon of 245000 M⁻¹ s⁻¹. Moreover, in assay [3], the “Binding to tumor cells (MFI)” value is 28200 MFI. In assay [4], the “Binding to human red blood cells (MFI)” value amounted to 763 MFI.
